# Data: the DeepSol protein solubility set
# Test: soluble on expression in E. coli; label from the status in PepcDB or PDB records
row,Sequence,soluble on expression in E. coli
1,MCINLQKMCKKCAKMCKICAKVCKKCAKNVQKKCKKCGKMCKKCAKKCLKKSKFSDPRNPKMLPTSLLVCSTGIPIECSAELLSKFKTRRI,soluble
2,MAEVMSQTLEDAMRRNPHLRKYVEEFRRKYGKIPEFHVQLSRDMKEIPYPNIIYPVGDPIFIHIYGDPNTEKQYIVIEPRIETKEEEEKYKLIRDRMLELAPNKDIPEEQEEFERFLDSLFEEAVL,not soluble
3,MSVKVIVTDMDGTFLNDAKTYNQPRFMAQYQELKKRGIKFVVASGNQYYQLISFFPELKDEISFVAENGALVYEHGKQLFHGELTRHESRIVIGELLKDKQLNFVACGLQSAYVSENAPEAFVALMAKHYHRLKPVKDYQEIDDVLFKFSLNLPDEQIPLVIDKLHIALDGIMKPVTSGFGFIDLIIPGLHKANGISRLLKRWDLSPQNVVAIGDSGNDAEMLKMARYSFAMGNAAENIKQIARYATDDNNHEGALNVIQAVLDNTSPFNS,not soluble
4,MFHGKHPGGLSERGRALLLEGGKALGLDLKPHLEAFSRLYALLQEASGKVNLTALRGEEEVVVKHFLDSLTLLRLPLWQGPLRVLDLGTGAGFPGLPLKIVRPELELVLVDATRKKVAFVERAIEVLGLKGARALWGRAEVLAREAGHREAYARAVARAVAPLCVLSELLLPFLEVGGAAVAMKGPRVEEELAPLPPALERLGGRLGEVLALQLPLSGEARHLVVLEKAALTSLAYPRRPGVPERHPLC,soluble
5,MGCLSYMVLSGDEALVVDPLRFIDVYEQVAQQEGVTITHIVDSHLHADHLSGGKALAERTGAAYYLMKSEGAVFDFEPLEQHETIDFENVHLEVLAVKTPGHTPGSVSFFVNGKWLFSGDTIFVGGLGRPDLGGKVAEWAEDLYHTVYEKVAAMADDVIVLPAHYANLDEEINAEGYVGDTLGRIRARNEMMQNKAKDEFIDLVIQGLEHHHHHH,not soluble
6,MPSYKLTYFFFRGLGEPIRLLFHLAGVQFEEVRMNPDQTWLDIKDSTPMKQLPVLNIDGFELPQSGAILRYLARKFGFAGKTPEEEAWVDAVHDLFKDFLAEFKKFAAERRSGKSAEEVEKFRSEFFLPARNTYFNILNGLLEKSNSGFLIGSDITFADLVVVDNLLTLKNYGLFDESEFTKLAALREKVNSYPGIKEYIAKRPVTEY,soluble
7,ALTVRKHYTKEQARVTVVNKYPTHQIITELHRLAAGNVSEKAVAMPLEKLFKGKDIDLKIAEVSSFSVDKKEVALADGSTLTYDALVVGLGSVTAYFGIPGLEENSMVLKSAADANKVFQHVEDRVREYSKTKNEADATILIGGGGLTGVELVGELADIMPNLAKKYGVDHKEIKLKLVEAGPKILPVLPDDLIERATASLEKRGVEFLTGLPVTNVEGNVIDLKDGSKVVANTFVWTGGVQGNPLVGESGLEVNRGRATVNDFLQSTSHEDVFVAGDSAVYFGPDGRPYPPTAQIAWQMGELIGYNLFAYLEGKTLETFKPVNSGTLASLGRKDAVAIIGANSTPLKGLPASLMKEASNVRYLTHIK,not soluble
8,SNAMLNTLIVGASGYAGAELVTYVNRHPHMNITALTVSAQSNDAGKLISDLHPQLKGIVELPLQPMSDISEFSPGVDVVFLATAHEVSHDLAPQFLEAGCVVFDLSGAFRVNDATFYEKYYGFTHQYPELLEQAAYGLAEWCGNKLKEANLIAVPGCYPTAAQLALKPLIDADLLDLNQWPVINATSGVSGAGRKAAISNSFCEVSLQPYGVFTHRHQPEIATHLGADVIFTPHLGNFPRGILETITCRLKSGVTQAQVAQALQQAYAHKPLVRLYDKGVPALKNVVGLPFCDIGFAVQGEHLIIVATEDNLLKGAAAQAVQCANIRFGYAETQSLI,soluble
9,MRSSKSPFKRKSHSRETSHDENTSFFHKRTISGSSAHHSRNVSQGAVPSSAPPVSGGNYSHKRNVSRASNSSQTSNFLAEQYERDRKAIINCCFSRPDHKTGEPPNNYITHVRIIEDSKFPSSRPPPDSKLENKKKRLLILSAKPNNAKLIQIHKARENSDGSFQIGRTWQLTELVRVEKDLEISEGFILTMSKKYYWETNSAKERTVFIKSLITLYIQTFEGHVPELVNWDLSLFYLDERSYQRAVITNRPGSVSPIKSPTSNFTTNTTQSVGSVPFSAPTERTRRSETESVNPVSTPASVEYHAGMKSLNKAPYSSNS,soluble
10,MGSDKIHHHHHHMQETKTTVRASTLSNGRSLAAYHEDFDRKWASAWGRTLTYAQMHANRVVQSARIVLSHPDIWGKVASGFVNAARGRKRLLRSLEIAVTYRCNARCEQCSCRRDHDPVREKTELLTLPELQRVIDEAVDMGAFQFCINGGEPMLEEEKVFALLDYIKTRHKGYVHLCTNGTLLDDDKVARLAEHHLDSVEMGFDSAFEDVHDANRVRGGYRKVFHNIEAFRKRGVGVVLNTILTNQKVRSDDMLFTMDLAKKHGCMLQVTPCCLTGALRGRMDMMLTEKARFYFYWFLAQSTNNRSDLYSSLTRIKCPAGREKLGLQPYGDVVSCPLIQIRYGNVREKGLAAIQQDILADPYYGLDGSHGCLPAMSETFIRERLSGDR,not soluble
11,MKVRASVKRICDKCKVIRRHGRVYVICENPKHKQRQG,soluble
12,MAGDPMNEEQRKSTSIDILAERDKKTKDYSKYFEHVYQPPSLKEARKRGKEEVNYNDDFQIDEKYRNMGQGKTFLIKTYGCQMNAHDTEVMAGILGALGYTPTEDINHADVILINTCAIRENAENKVFSEIGNLKHLKKEKPETVIGVCGCMSQEESVVNKILKSYQNVDMIFGTHNIHRLPEILEEAYLSKAMVVEVWSKEGDVIENLPKVREGNIKAWVNIMYGCDKFCTYCIVPFTRGKERSRRPEDIIDEVRDLARQGYKEITLLGQNVNAYGKDIDGLAYGLGDLLEDISKIDIPRVRFTTSHPWDFTDRMIEVIANGGNIVPHVHLPVQSGNNAVLKIMGRKYTRESYLDLVNRIKTHIPNVALTTDIIVGYPNETDEQFEETLTLYDEVEFEHAYTYIYSQRDGTPAAKMNDNVPLDVKKDRLQQLNKKVACYSERAMQQYEGQTVQVLCEGVSKKDDTVLSGYTSKNKLVNFKAPKSMIGKIVNVYIDEAKQFSLNGTFISVNDKTVVTQLEHHHHHH,soluble
13,MNNLLRCHQVCKTYQEGELQTQVLKGVSFELKRGELVSIIGSSGSGKSTLLHILGALDDASEGQVEFLGQSLHQLSSNKQAKIRNQHLGFVYQFHHLLADFSALENVAMPLLIGGMNVAKAKAKAQSLLERVGLGHRVAHRPSELSGGERQRVAIARALVNKPDLVLADEPTGNLDHKTALSIYDLMRELNRESGTAFLVVTHDGELAAKMDRHMHMKDGLLTDITGA,not soluble
14,MTDEIISYQKAKLAKNLAISTASKWLFVHSSTGGSATNLSIAQYATLINGIQSAIKCQVILTAGKGERERAVELAEKLTDQNVVIYDKNDGLADFTRSLACADLFIAGSTGPLHIAGGLNIPTVGFYPSRLSATPRRWRPINQVDKHLAFCPPSGKQCEMDLTLISIEQALTSVIPFIKKMWQLSLEHHHHHH,soluble
15,MDSVCPQGKYIHPQNNSICCTKCHKGTYLYNDCPGPGQDTDCRECESGSFTASENHLRHCLSCSKCRKEMGQVEISSCTVDRDTVCGCRKNQYRHYWSENLFQCFNCSLCLNGTVHLSCQEKQNTVCTCHAGFFLRENECVSCSNCKKSLECTKLCLPQIEN,soluble
16,MINNVLVWKQPNISWIHPINIDNSINANNFNFDYLDTLNKLRSSNLKILELRDIADKISDGPFGSQLKVEEYKEQGFPVYRVKNIIDTQILDDDIVYIDAKKQQQLKRSEVLPGDVLITKAGRIGSAAVVPSKFGNGNITSHLVLVRLKKTINNYYLVAYLECKYGKVITGRESYKSTRPELTKNEIGNVIIPIPSPEIQKYIGDKVRKAEELREEAKRLKKEAETFLYEMIQLKPLNDFDKDMFSFVNSNYIDSERLDSEYYKTKYITLEKLLKSKKVTSFKDIIIESKYGASVPADYTMVGIPFIRGNNLTDNEINIDDIVYLNKKLKDEVKDHHVNTGDILITRSGTVGISAVVDEKCDGFSFGSFMIKLRIDMRIWNPYYIAAFLNSFWGKWQIERLQNGAVQQNINLQEIGRIIIPIISKENQDKIEELIKNYINKKRQSKQLIQEAKQDVEDLIEGNFDMSKVKANS,soluble
17,MKKIATATIATAGIATFAFAHHDAQAAEQNNDGYNPNDPYSYSYTYTIDAEGNYHYTWKGNWSPDRVNTSYNYNNYNNYNYYGYNNYSNYNNYSNYNNYNNYQSNNTQSQRTTQPTGGLGASYSTSSSNVHVTTTSAPSSNGVSLSNARSASGNLYTSGQCTYYVFDRVGGKIGSTWGNANNWANAAARSGYTVNNSPAKGAILQTSQGAYGHVAYVEGVNSNGSIRVSEMNYGHGAGVVTSRTISASQAASYNYIHLEHHHHHH,not soluble
18,MAHHHHHHMNPQTSLTRKQCDFTKLIMAGYDLELNNGSTQDFDVMFHGPNGTAYEGGIWKVHVTLPDDYPFASPSIGFMNKLLHPNVDEASGSVCLDVINQTWTPLYSLVNVFEVFLPQLLTYPNPSDPLNSDAASLLMKDKNIYEEKVKEYVKLYASKDLWEQQKKEKKPSNINGNISPVSELSYVDQDVQDIDLDNL,soluble
19,GPRRLSIEGNIAVGKSTFVKLLTKTYPEWHVATEPVATWQNIQAAGNQKACTAQSLGNLLDMMYREPARWSYTFQTFSFLSRLKVQLEPFPEKLLQARKPVQIFERSVYSDRYIFAKNLFENGSLSDIEWHIYQDWHSFLLWEFASRITLHGFIYLQASPQVCLKRLYQRAREEEKGIELAYLEQLHGQHEAWLIHKTTKLHFEALMNIPVLVLDVNDDFSEEVTKQEDLMREVNTFVKNL,soluble
20,MASGTASMQRPSIEKEPYYHGFLPREDVKTVLKNNGDFVIRISEPQAGSPRSNILSVMHCVPPMEEEIKHYVIKTKGDKIFIEKVSFLSIPEMVEWHLTKKESVQKDVFLIKAISRQAWELDHDNIEPLKKLGEGAFGEVMMGTMKFRKGGKSVQVAIKQAKLSNLTKEQIKEFMGEARVMRSLSHPHVVRFYGVPRRRVNVALCRSLNEFLAKCHRKLRCATPFFVCMSVNWLSVLNELRVFLE,not soluble
21,MADTKAKLTLNGDTAVELDVLKGTLGQDVIDIRTLGSKGVFTFDPGFTSTASCESKITFIDGDEGILLHRGFPIDQLATDSNYLEVCYILLNGEKPTQEQYDEFKTTVTLHTMIHEQITRLFHAFRRDSHPMAVMCGITGALAAFYHDSLDVNNPRHREIAAFRLLSKMPTMAAMCYKYSIGQPFVYPRNDLSYAGNFLNMMFSTPCEPYEVNPILERAMDRILILHADHEQNASTSTVRTAGSSGANPFACIAAGIASLWGPAHGGANEAALKMLEEISSVKHIPEFFRRAKDKNDSFRLMGFGHRVYKNYDPRATVMRETCHEVLKELGTKDDLLEVAMELENIALNDPYFIEKKLYPNVDFYSGIILKAMGIPSSMFTVIFAMARTVGWIAHWSEMHSDGMKIARPRQLYTGYEKRDFKSDIKR,soluble
22,INKINLNKPIIENKNNVDVSIKRYNNFVDIARLSIQKHFEHLSNDQKDSHVNNMEYMQKFVQGLQENRNISLSKYQENKAVMDLKYHLQKVYANYLSQEEN,soluble
23,MVDQAQDTLRPNNRLSDMQATMEQTQAFENRVLERLNAGKTVRSFLITAVELLTEAVNLLVLQVFRKDDYAVKYAVEPLLDGDGPLGDLSVRLKLIYGLGVINRQEYEDAELLMALREELNHDGNEYAFTDDEILGPFGELHCVAALPPPPQFEPADSSLYAMQIQRYQQAVRSTMVLSLTELISKISLKKAFQK,soluble
